Ends that are not written are not given here.
T1: biotinylated Compound 1 (biotinylated CCR4 partial peptide) (human, also: biotinylated, site not given here)
T1 construct: Same peptide as in BSA-Compound 1
T1 peptide: DESIYSNYYLYESIPKPC

T2: BSA-Compound 1 (human CCR4 extracellular region peptide Compound 1 conjugated with BSA) (human, also: conjugated to BSA through SMCC, site not given here)
T2 construct: the claims speak of positions 13 to 29; ELISA antigen; also called CCR4 partial peptide
T2 peptide: DESIYSNYYLYESIPKPC

T3: human CC chemokine receptor 4 (CCR4) on CCR4/EL-4 cells (human, UniProt P51679 1-360)
T3 construct: also called hCCR4; human CCR4-high-expressing cell
T3 sequence: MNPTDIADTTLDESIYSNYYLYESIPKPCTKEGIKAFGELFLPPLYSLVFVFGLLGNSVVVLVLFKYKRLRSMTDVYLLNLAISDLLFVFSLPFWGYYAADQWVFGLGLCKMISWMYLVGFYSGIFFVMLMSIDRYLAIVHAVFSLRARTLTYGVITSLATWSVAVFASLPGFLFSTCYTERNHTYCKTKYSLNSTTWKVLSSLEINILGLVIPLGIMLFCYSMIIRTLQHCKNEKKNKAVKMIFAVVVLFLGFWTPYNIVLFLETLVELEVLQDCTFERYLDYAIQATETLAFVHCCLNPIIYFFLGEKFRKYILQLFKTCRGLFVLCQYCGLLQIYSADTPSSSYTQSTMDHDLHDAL


Key:
[1] = target: T1, biotinylated Compound 1 (biotinylated …); assay: BIAcore 2000, biotinylated Compound 1 on sensor tip SA, antibody at 4 µg/ml
Method: In order to measure the binding activity in more detail, the binding activity of various purified antibodies was measured using BIAcore 2000 (manufactured by BIACORE) as follows. In this case, HBS-EP (manufactured by BIACORE) was used as the buffer for diluting samples and for the measurement. First, 5 μl of 0.05 μg/ml solution of Compound 1 as a biotinylated CCR4 partial peptide was added to a sensor tip SA (manufactured by BIACORE) at a flow rate of 5 μl/minute and immobilized on the sensor tip.
To the prepared biotinylated compound 1 -immobilized sensor tip, 20 μl of 4 μg/ml solution of each of the purified antibodies was added at a flow rate of 5 μl/minute, and after completion of the addition, the dissociation reaction was monitored for 4 minutes and then the sensor tip surface was regenerated by adding 5 μl of 10 mM HCl twice. In this way, a binding reaction curve (sensorgram) for Compound 1 was obtained.

[2] = target: T2, BSA-Compound 1 (human CCR4 …); assay: ELISA on BSA-Compound 1, purified antibody
[3] = target: T3, human CC chemokine receptor 4 (CCR4) on …; assay: flow cytometry on CCR4/EL-4 cells, antibody at 10 µg/ml
Method: Into a 96 well plate, 2×10⁵ or more of CCR4/EL-4 cells, CCR4-high-expressing cells obtained in Reference Example 3, were dispensed. An antibody solution was prepared by diluting each of the purified antibodies and a human immunoglobulin (manufactured by Welfide) for preventing nonspecific staining to give concentrations of 10 μg/ml and 3.75 mg/ml, respectively, with a buffer for FACS, and the antibody solution was added at 100 μl/well and allowed to react for 30 minutes in ice. As a negative control, 10 μg/ml of an anti-human IL-5 receptor a chain antibody (WO 97/10354) was used. After washing twice with 200 μl/well of the buffer for FACS, a PE-labeled anti-human IgG antibody (manufactured by Coulter) diluted 100 times was added at 50 μl/well. After the reaction in ice under shading and subsequent washing three times with 200 μl/well of the buffer for FACS, the reaction product was suspended in 500 μl of the buffer for FACS and the fluorescence intensity was measured using a flow cytometer.

[4] = target: T2, BSA-Compound 1 (human CCR4 …); assay: ELISA on BSA-Compound 1, COS-7 culture supernatant
Method: Into a 96 well ELISA plate (manufactured by Greiner), 0.05 μg/ml of the prepared conjugate was dispensed in at 50 μl/well and allowed to stand at 4° C. overnight for adsorption. After washing with PBS, PBS containing 1% BSA (hereinafter referred to as “1% BSA-PBS”) was added thereto at 100 μl/well and allowed to react at room temperature for 1 hour to block the remaining active groups. After washing each well with PBS containing 0.05% Tween 20 (hereinafter referred to as “Tween-PBS”), a culture supernatant of the transformant was added at 50 μl/well and allowed to react at room temperature for 1 hour. After the reaction and subsequent washing of each well with Tween-PBS, a peroxidase-labeled goat anti-human IgG(γ) antibody solution (manufactured by American Qualex) diluted 6,000 folds with 1% BSA-PBS was added as a secondary antibody solution in 50 μl/well portions and allowed to react at room temperature for 1 hour After the reaction and subsequent washing with Tween-PBS, an ABTS substrate solution (a solution prepared by dissolving 0.55 g of […] ammonium in 1 liter of 0.1 M citrate buffer (pH 4.2) and adding 1 μl/ml hydrogen peroxide just before use) was added at 50 μl/well to develop color, and the reaction was stopped 20 minutes thereafter by adding 5% SDS solution at 50 μl/well. Thereafter, absorbance at 415 nm was measured.

binding result [1]	binding result [2]	binding result [3]	binding result [4]	Binder
binds	binds	binds	–	anti-CCR4 CDR-grafted antibody Ga10LV1 (antibody, human IgG1, V domains shown, Tested as COS-7 supernatant and as purified antibody from YB2/0; also called pKM2160Ga10LV1) VH: EVQLVESGGDLVQPGRSLRLSCAASGFIFSNYGMSWVRQAPGKGLEWVATISSASTYSYYPDSVKGRFTISRDNAKNSLYLQMNSLRVEDTALYYCARHSDGNFAFGYWGQGTLVTVSS VL: DVVMTQSPLSLPVTPGEPASISCRSSRNIVHINGDTYLEWYLQKPGQSPQLLIYKVSNRFSGVPDRFSGSGSGTDFTLKISRVEAEDVGVYYCFQGSLLPWTFGQGTKVEIK
binds	binds	binds	–	anti-CCR4 CDR-grafted antibody Ga11LV1 (antibody, human IgG1, V domains shown, Tested as COS-7 supernatant and as purified antibody from YB2/0; also called pKM2160Ga11 LV1) VH: EVQLVESGGDLVQPGRSLRLSCAASGFIFSNYGMSWVRQAPGKGLEWVATISSASTYSYYPDSVKGRFTISRDNAKNSLYLQMNSLRVEDTALYYCGRHSDGNFAFGYWGQGTLVTVSS VL: DVVMTQSPLSLPVTPGEPASISCRSSRNIVHINGDTYLEWYLQKPGQSPQLLIYKVSNRFSGVPDRFSGSGSGTDFTLKISRVEAEDVGVYYCFQGSLLPWTFGQGTKVEIK
binds	binds	binds	–	anti-CCR4 CDR-grafted antibody Ga12LV1 (antibody, human IgG1, V domains shown, Tested as COS-7 supernatant and as purified antibody from YB2/0; also called pKM2160Ga12LV1) VH: EVQLVESGGDLVQPGRSLRLSCAASGFIFSNYGMSWVRQAPDKRLEWVATISSASTYSYYPDSVKGRFTISRDNAKNSLYLQMNSLRVEDTALYYCARHSDGNFAFGYWGQGTLVTVSS VL: DVVMTQSPLSLPVTPGEPASISCRSSRNIVHINGDTYLEWYLQKPGQSPQLLIYKVSNRFSGVPDRFSGSGSGTDFTLKISRVEAEDVGVYYCFQGSLLPWTFGQGTKVEIK
binds	binds	binds	–	anti-CCR4 CDR-grafted antibody Ga11LV3 (antibody, human IgG1, V domains shown, Tested as COS-7 supernatant and as purified antibody from YB2/0; also called pKANTEX2160Ga11LV3; antibody of producing cell KM8760 (FERM BP-8130)) VH: EVQLVESGGDLVQPGRSLRLSCAASGFIFSNYGMSWVRQAPGKGLEWVATISSASTYSYYPDSVKGRFTISRDNAKNSLYLQMNSLRVEDTALYYCGRHSDGNFAFGYWGQGTLVTVSS VL: DVLMTQSPLSLPVTPGEPASISCRSSRNIVHINGDTYLEWYLQKPGQSPQLLIYKVSNRFSGVPDRFSGSGSGTDFTLKISRVEAEDVGVYYCFQGSLLPWTFGQGTKVEIK
binds	–	binds	binds	anti-CCR4 CDR-grafted antibody Ga13LV3 (antibody, human IgG1, V domains shown, Tested as COS-7 supernatant and as purified antibody from YB2/0; also called pKM2160Ga13LV3) VH: EVQLVESGGDLVQPGRSLRLSCAASGFIFSNYGMSWVRQAPDKRLEWVATISSASTYSYYPDSVKGRFTISRDNAKNSLYLQMNSLRVEDTALYYCGRHSDGNFAFGYWGQGTLVTVSS VL: DVLMTQSPLSLPVTPGEPASISCRSSRNIVHINGDTYLEWYLQKPGQSPQLLIYKVSNRFSGVPDRFSGSGSGTDFTLKISRVEAEDVGVYYCFQGSLLPWTFGQGTKVEIK
binds	binds	binds	–	anti-CCR4 CDR-grafted antibody Ga12LV3 (antibody, human IgG1, V domains shown, Tested as COS-7 supernatant and as purified antibody from YB2/0; also called pKANTEX2160Ga12LV3; antibody of producing cell KM8759 (FERM BP-8129)) VH: EVQLVESGGDLVQPGRSLRLSCAASGFIFSNYGMSWVRQAPDKRLEWVATISSASTYSYYPDSVKGRFTISRDNAKNSLYLQMNSLRVEDTALYYCARHSDGNFAFGYWGQGTLVTVSS VL: DVLMTQSPLSLPVTPGEPASISCRSSRNIVHINGDTYLEWYLQKPGQSPQLLIYKVSNRFSGVPDRFSGSGSGTDFTLKISRVEAEDVGVYYCFQGSLLPWTFGQGTKVEIK
binds	–	binds	binds	anti-CCR4 CDR-grafted antibody Ga13LV1 (antibody, human IgG1, V domains shown, Tested as COS-7 supernatant and as purified antibody from YB2/0; also called pKM2160Ga13LV 1) VH: EVQLVESGGDLVQPGRSLRLSCAASGFIFSNYGMSWVRQAPDKRLEWVATISSASTYSYYPDSVKGRFTISRDNAKNSLYLQMNSLRVEDTALYYCGRHSDGNFAFGYWGQGTLVTVSS VL: DVVMTQSPLSLPVTPGEPASISCRSSRNIVHINGDTYLEWYLQKPGQSPQLLIYKVSNRFSGVPDRFSGSGSGTDFTLKISRVEAEDVGVYYCFQGSLLPWTFGQGTKVEIK
binds	binds	binds	–	anti-CCR4 CDR-grafted antibody Ga10LV3 (antibody, human IgG1, V domains shown, Tested as COS-7 supernatant and as purified antibody from YB2/0; also called pKM2160Ga10LV3) VH: EVQLVESGGDLVQPGRSLRLSCAASGFIFSNYGMSWVRQAPGKGLEWVATISSASTYSYYPDSVKGRFTISRDNAKNSLYLQMNSLRVEDTALYYCARHSDGNFAFGYWGQGTLVTVSS VL: DVLMTQSPLSLPVTPGEPASISCRSSRNIVHINGDTYLEWYLQKPGQSPQLLIYKVSNRFSGVPDRFSGSGSGTDFTLKISRVEAEDVGVYYCFQGSLLPWTFGQGTKVEIK

From patent publication US20030175273A1 (Kyowa Kirin, published 2003)
